Data from patent US20260146077A1 (US Dept. of Health and Human Services, published 2026).
Changes are numbered by the printed parent chain.

B1: A23-58.1HC/58.1LC_94GLT (antibody, V domains shown)
VH: not shown
VL: EIVLTQSPGTLSLSPGERATLSCRASQSVSSSYLAWYQQKPGQAPRLLIYSASSRATGIPDRFSGSGSGTDFTLTISRLEPEDFAVYFCQQYGGLTWTFGQGTKVEIK
B2: A23-58.1HC/58.1LC_94GLTG (antibody, V domains shown)
VH: not shown
VL: EIVLTQSPGTLSLSPGERATLSCRASQSVSSSYLAWYQQKPGQAPRLLIYSASSRATGIPDRFSGSGSGTDFTLTISRLEPEDFAVYFCQQYGGLTGWTFGQGTKVEIK
B3: B1-182.1HC_F100cS/S2E12LC (antibody, V domains shown)
VH: not shown
VL: B2 VL with E1D, S7T, S51G, F88Y, G93V
B4: A23-58.1HC/58.1LC_93VGLTG (antibody, V domains shown)
VH: not shown
VL: B2 VL with G93V
B5: B1-182.1HC/S2E12LC (antibody, V domains shown)
VH: not shown
VL: B2 VL with E1D, S7T, S51G, F88Y, G93V
B6: S2E12 (antibody, V domains shown)
VH: not shown
VL: B2 VL with E1D, S7T, S51G, F88Y, G93V

Each binder was assayed against T1, SARS-CoV-2 spike protein, BA.1 (SARS-CoV-2, UniProt P0DTC2 14-1273) (assay: cell-based or functional assay).

In order of falling “neutralization IC80” value:
1. B3  51.6 ng/mL
2. B1  46.4 ng/mL
3. B5  45.2 ng/mL
4. B6  38.5 ng/mL
5. B2  11.9 ng/mL
6. B4  11.2 ng/mL

In order of falling “neutralization IC50” value:
1. B3  13.9 ng/mL
2. B5  9.9 ng/mL
3. B2  3.6 ng/mL
4. B4  3.3 ng/mL

What follows are binders tested against SARS-CoV-2 spike protein, BA.1.1 (SARS-CoV-2, UniProt P0DTC2 14-1273) (assay: cell-based or functional assay).

In order of falling “neutralization IC50” value:
1. B6  15.5 ng/mL
2. B3  8.4 ng/mL
3. B5  4.7 ng/mL

In order of rising “neutralization IC80” value:
1. B3  20 ng/mL
2. B5  24.2 ng/mL
3. B6  55.4 ng/mL

These binders were tested against SARS-CoV-2 spike protein, B.1.617.2 (SARS-CoV-2, UniProt P0DTC2 14-1273) (assay: cell-based or functional assay).

In order of falling “neutralization IC50” value:
1. B4  5.8 ng/mL
2. B2  2.9 ng/mL
3. B3  1.2 ng/mL
4. B6  1.2 ng/mL
5. B5  1.1 ng/mL

In order of rising “neutralization IC80” value:
1. B6  2.6 ng/mL
2. B5  2.9 ng/mL
3. B3  3.3 ng/mL
4. B2  11.2 ng/mL
5. B4  12.4 ng/mL

The binders below were run against SARS-CoV-2 spike protein, B.1.351 (SARS-CoV-2, UniProt P0DTC2 14-1273) (assay: cell-based or functional assay).

In order of rising “neutralization IC50” value:
1. B5  0.8 ng/mL
2. B3  1.5 ng/mL
3. B2  1.8 ng/mL
4. B4  2.7 ng/mL
5. B6  3.9 ng/mL

In order of rising “neutralization IC80” value:
1. B2  4.4 ng/mL
2. B3  4.4 ng/mL
3. B5  4.4 ng/mL
4. B4  5 ng/mL
5. B6  8.7 ng/mL

The binders below were run against T2, SARS-CoV-2 spike protein, BA.2.12.1 (SARS-CoV-2, UniProt P0DTC2 14-1273) (assay: cell-based or functional assay).

In order of rising “neutralization IC80” value:
1. B2  9.2 ng/mL
2. B4  11.5 ng/mL
3. B5  35 ng/mL
4. B6  46.6 ng/mL
5. B3  54.2 ng/mL
6. B1  105 ng/mL

In order of falling “neutralization IC50” value:
1. B6  15.6 ng/mL
2. B3  14.9 ng/mL
3. B5  11.5 ng/mL
4. B4  3.4 ng/mL
5. B2  1.9 ng/mL

What follows are binders tested against SARS-CoV-2 spike protein, BA.2 (SARS-CoV-2, UniProt P0DTC2 14-1273) (assay: cell-based or functional assay).

In order of falling “neutralization IC50” value:
1. B6  9.9 ng/mL
2. B3  9.4 ng/mL
3. B5  6.3 ng/mL

In order of rising “neutralization IC80” value:
1. B5  28 ng/mL
2. B3  31.7 ng/mL
3. B6  48.2 ng/mL

What follows are binders tested against BA.2.75 (assay: cell-based or functional assay).

In order of falling “neutralization IC50” value:
1. B2  1 ng/mL
2. B4  0.9 ng/mL

In order of falling “neutralization IC80” value:
1. B2  3.1 ng/mL
2. B4  3 ng/mL

What follows are binders tested against BA.4.6 (assay: cell-based or functional assay).

In order of rising “neutralization IC50” value:
1. B4  4.1 ng/mL
2. B2  4.2 ng/mL

In order of falling “neutralization IC80” value:
1. B2  15.7 ng/mL
2. B4  14.8 ng/mL

Molecular target: T1, SARS-CoV-2 spike protein, BA.1
Test: cell-based or functional assay
Remark: another data set of the same source

First: B1
Second: B2
The “BA.1 neutralization, fold improvement over A19-58.1” value of the first is lower: 7 fold for the first, > 27 fold for the second.

In the case of B4, the “BA.1 neutralization, fold improvement over A19-58.1” value is reported as > 30 fold.

In order of falling “pseudovirus neutralization IC50” value:
1. B1  13.7 ng/mL
2. B6  8.8 ng/mL

B3 and B5 cannot be ordered by “BA.1 neutralization, fold improvement over B1-182.1” value: > 14 fold for the first, 20 fold for the second.

For B6, the “fold loss in neutralization” value was < 10 fold loss.

Molecular target: T2, SARS-CoV-2 spike protein, BA.2.12.1
Test: cell-based or functional assay
Remark: another data set of the same source

For B1, the “pseudovirus neutralization IC50” value was 25 ng/mL.
